B1: AHP32919 (antibody, V domains shown)
VH: QVQLQESGGGVVQPGGSLRLSCAASQSIGLLSTMGWYRQAAGKQRELVATITRGGSTNYGEFVKGRFTISRDNAKNTVYLQMNSLKPEDTAVYYCTADESWLGTQSYWGRGTRVTVSS
VL: QAGLTQPPSASGTPGQGVTISCSGSSSNIGSNSVNWYQQLPGTAPKLLMHSNNERSSGVPDRFSGSKSGSSASLAISGLQSEDAADYFCGAWDDSLNGYVFGTGTKLTVL
B2: AHP30826 (antibody, V domains shown)
VH: QVQLQQSGGGSVQAGGSLRLSCAASGTILSINAMGWYRQAPGKQRELVATITTGGNANYAHSVKGRFTISRDNAKNTVYLQMNNLKPEDTAVYYCNAEQVVVGFLQAYDVWGQGTTVTVSS
VL: DVVMTQSPLSLPVTLGQAASISCRSSQSLVHGDGNTYLNWIQQRPGQSPRRLIYKVSNRDSGVPDRFSGSGSGTDFTLKISRVEAEDVGVYYCMQGTHWPSTFGPGTKVDIK
B3: AHP29153 (antibody, V domains shown)
VH: QLQQVESGGGLVQPGGSLRLSCAASRNIGILSTMGWYRQAPGKQRELVATITRGGSTNYGEFVKGRFTISRDNAKNTVYLQMNSLKPEDTAVYYCNVDESWLGTQSYWGRGTTVTVSS
VL: QSVLTQPASVSGSPGQSITISCTGTSSDVGGYKYVSWYQQPPGKAPKLIIYEVTKRPSGVPDRFSGSKSGNTASLTVSGLQAEDEADYYCLSYAGSNNVFGTGTKLTVL
B4: AHP32982 (antibody, V domains shown)
VH: B3 VH with L2V, Q4L, E6Q, T112P, T113L
VL: DIVMTQSPSSVSASVGDRVTITCRASQGISSWLAWYQQKPGKAPKLLIYAASSLQSGVPSRFSGSGSGTDFTLTISSLQPEDFATYYCQQANSFPLTFGGGTKVEIK
B5: AHP31548 (antibody, V domains shown)
VH: B3 VH with L2V, Q4L, V5M, E6Q
VL: QSALTQPPSASGSPGQSVTISCTGTSSDIGTYNFVSWYQQHPGKAPKLIIYEVSKRPSGVPDRFSGSKSGNTASLTVSGLQAEDEADYYCKSYPRVFGTGTKLTAL
B6: AHP32913 (antibody, V domains shown)
VH: B3 VH with L2V, Q4L, V5M, E6Q, T113Q
VL: QAVVTQEPSLTVSPGGTVTLTCGSSTGPVTSGHYPHWYQQKPGQAPKTLIFDTSHKHPWTPAQFSGSLLGGKAALTLSGAHPEDEAEYYCLLSYSGVRVFGGGTQLIIL

Residue numbers refer to the chain shown, from its start.

In this assay the target is murine Claudin 18.2 expressed on HEK293 cells (murine) (UniProt P56857). Kind of assay: flow cytometry on HEK293 cells expressing murine Claudin 18.2. For orientation: Flow cytometry measures light scatter and fluorescence of single cells or particles in a stream.
Sequence of murine Claudin 18.2 expressed on HEK293 cells (murine) (P56857 whole entry): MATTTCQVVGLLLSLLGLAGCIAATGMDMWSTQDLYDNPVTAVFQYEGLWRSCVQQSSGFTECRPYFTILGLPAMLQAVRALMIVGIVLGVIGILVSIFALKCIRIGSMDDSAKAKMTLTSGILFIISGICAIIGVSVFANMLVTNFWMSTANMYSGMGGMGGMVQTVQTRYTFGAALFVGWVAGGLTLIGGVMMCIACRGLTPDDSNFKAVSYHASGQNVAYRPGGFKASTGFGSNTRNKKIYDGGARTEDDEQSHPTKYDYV
As for B1, the EC50 (commonly the concentration needed to bring the measured effect to its halfway point) stood at 0.772 nM.

The molecule B2 showed an EC50 of 3.44 nM.

As for B3, the EC50 was found to be 4.45 nM.

On to B4, for which the EC50 is 4.03 nM. This EC50 and that of the molecule before are within 1.5-fold of each other.

As for B5, the EC50 worked out at 1.67 nM.

On to B6, for which the EC50 was 0.728 nM.

Values taken from patent EP4786493A1.
